Experimental data reported in paper PMC12016552, “Growth-coupled continuous directed evolution by MutaT7 enables efficient and automated enzyme engineering” (Applied and Environmental Microbiology, 2025).
Positions count from the first letter of the chain named. Names may count otherwise.

Substrate: O=S1(=O)OC(c2ccc(O)c(Cl)c2)(c2ccc(O[C@@H]3O[C@H](CO)[C@H](O)[C@H](O)[C@H]3O)c(Cl)c2)c2ccccc21
Assay: purified protein
Type: biochemical, Pyrococcus furiosus
Conditions: 25 °C, PBS pH 7.4 (CPRG assay as described for screening; screening buffer contained 2.7% glucose)

B1: CelB (Pyrococcus furiosus) (protein)
chain: MKFPKNFMFGYSWSGFQFEMGLPGSEVESDWWVWVHDKENIASGLVSGDLPENGPAYWHLYKQDHDIAEKLGMDCIRGGIEWARIFPKPTFDVKVDVEKDEEGNIISVDVPESTIKELEKIANMEALEHYRKIYSDWKERGKTFILNLYHWPLPLWIHDPIAVRKLGPDRAPAGWLDEKTVVEFVKFAAFVAYHLDDLVDMWSTMNEPNVVYNQGYINLRSGFPPGYLSFEAAEKAKFNLIQAHIGAYDAIKEYSEKSVGVIYAFAWHDPLAEEYKDEVEEIRKKDYEFVTILHSKGKLDWIGVNYYSRLVYGAKDGHLVPLPGYGFMSERGGFAKSGRPASDFGWEMYPEGLENLLKYLNNAYELPMIITENGMADAADRYRPHYLVSHLKAVYNAMKEGADVRGYLHWSLTDNYEWAQGFRMRFGLVYVDFETKKRYLRPSALVFREIATQKEIPEELAHLADLKFVTRK
notes: homotetramer
**Q.** Which results are given for B1?
**A.** Km: 29.1 ± 1.9 µM; kcat: 0.89 ± 0.04 s⁻¹

B2: CelB (Pyrococcus furiosus; K436N/L412W/Y416H) (protein)
chain: B1 chain with L412W, Y416H, K436N
notes: homotetramer
**Q.** With B2 as the protein, how does the Km (variant W10) read?
**A.** 17.6 ± 3.6 µM

**Q.** And the kcat (variant W10)?
**A.** 1.15 ± 0.18 s⁻¹

B3: CelB (Pyrococcus furiosus; E365K/G72E) (protein)
chain: B1 chain with G72E, E365K
notes: homotetramer
**Q.** Which Km (variant AA10) does the source give for B3 here?
**A.** 19.3 ± 2.5 µM

**Q.** What about the kcat (variant AA10) of the same protein?
**A.** 1.16 ± 0.10 s⁻¹
